According to paper PMC12884772, “Macrophagic Sclerostin Loop2‐ApoER2 Interaction Required by Sclerostin for Cardiovascular Protective Action” (Advanced Science, 2025):
Positions count from the first letter of the chain named. Names and notes keep the numbering of the source.

T1: ApoER2 (Mus musculus, UniProt Q924X6)
T1 construct: FLAG; expressed in transfected cells; host or cells: RAW264.7
T1 sequence (Q924X6 29-996): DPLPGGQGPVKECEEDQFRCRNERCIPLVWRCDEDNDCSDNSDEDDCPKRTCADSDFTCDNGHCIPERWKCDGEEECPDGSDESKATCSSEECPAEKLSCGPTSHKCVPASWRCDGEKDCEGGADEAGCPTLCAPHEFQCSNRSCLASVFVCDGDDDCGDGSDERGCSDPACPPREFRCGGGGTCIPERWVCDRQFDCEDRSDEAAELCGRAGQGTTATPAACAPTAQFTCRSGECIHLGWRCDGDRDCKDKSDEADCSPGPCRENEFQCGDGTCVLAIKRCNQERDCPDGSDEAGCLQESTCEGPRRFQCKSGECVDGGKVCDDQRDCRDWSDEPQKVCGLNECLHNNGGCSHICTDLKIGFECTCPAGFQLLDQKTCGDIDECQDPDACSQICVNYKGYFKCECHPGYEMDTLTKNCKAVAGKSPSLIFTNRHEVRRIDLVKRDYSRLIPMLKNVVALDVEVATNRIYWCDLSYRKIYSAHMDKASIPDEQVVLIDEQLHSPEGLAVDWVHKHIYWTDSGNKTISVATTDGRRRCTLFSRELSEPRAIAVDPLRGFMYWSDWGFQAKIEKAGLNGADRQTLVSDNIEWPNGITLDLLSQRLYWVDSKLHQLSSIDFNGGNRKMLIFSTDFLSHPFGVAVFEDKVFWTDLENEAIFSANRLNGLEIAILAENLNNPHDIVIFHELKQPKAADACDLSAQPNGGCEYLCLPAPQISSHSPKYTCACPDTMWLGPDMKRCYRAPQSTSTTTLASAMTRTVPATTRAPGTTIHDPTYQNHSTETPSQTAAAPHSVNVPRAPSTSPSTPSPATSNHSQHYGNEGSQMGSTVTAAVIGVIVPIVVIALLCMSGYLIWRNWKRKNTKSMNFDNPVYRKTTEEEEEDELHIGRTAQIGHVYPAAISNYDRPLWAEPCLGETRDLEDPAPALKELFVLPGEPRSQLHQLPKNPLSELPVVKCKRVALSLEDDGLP

B1: ApoER2‐M2: ApoER2 mutein P253A, T254A, G268A, W269A, R270A (protein, UniProt Q924X6 29-996, looked up, variant P253A T254A G268A W269A R270A)
Low-density lipoprotein …: T1 sequence (Q924X6 29-996) with P225A, T226A, G240A, W241A, R242A
B2: ApoER2‐M8: ApoER2 mutein P253A, T254A, G268A, W269A, R270A, N311A, Q312A, E313A, encoded by Lrp8m (protein, UniProt Q924X6 29-996, looked up, variant P253A T254A G268A W269A R270A N311A Q312A E313A)
Low-density lipoprotein …: T1 sequence (Q924X6 29-996) with P225A, T226A, G240A, W241A, R242A, N283A, Q284A, E285A
B3: SOST^loop2m: sclerostin mutein with I94A, G95A, R96A, K98A, W99A, encoded by sost^loop2m (protein)
chain: QGWQAFRNDATEVIPGLGEYPEPPPENNQTMNRAENGGRPPHHPYDAKDVSEYSCRELHYTRFLTDGPCRSAKPVTELVCSGQCGPARLLPNAAAAVAAWRPNGPDFRCIPDRYRAQRVQLLCPGGAAPRSRKVRLVASCKCKRLTRFHNQSELKDFGPETARPQKGRKPRPGARGAKANQAELENAY

Assays:
sclerostin loop2 = sclerostin loop2 (Mus musculus, UniProt Q99P68); assay: Pull‐down assay of ApoER2 muteins with sclerostin loop2; assay type: binding; details: Figure 6D
sclerostin loop2, sequence (Q99P68 107-132 limits assumed): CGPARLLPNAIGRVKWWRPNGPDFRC
Description: The interaction residues within ApoER2 to sclerostin loop2 were determined in combination with pull‐down assay and BLI analysis. Based on the interaction residues within ApoER2 to sclerostin loop2, a series of Lrp8 mutations were developed. Based on the interaction residues within sclerostin loop2 to ApoER2, a series of sost mutations were developed.
Cell lysates were collected using RIPA Lysis and Extraction Buffer (Thermo Scientific, 89 901) supplemented with Protease Inhibitor Cocktail (CST, 5871) and centrifuged at 4000 rpm for 30 min at 4 °C, and replaced with binding buffer (PBS buffer, 20 mM imidazole, pH 8.0). After pretreatment with binding buffer three times, 20 µL Ni‐NTA Magnetic Agarose Beads were incubated with 6 µg His‐SOST and 6 µg His‐loop3 peptide, respectively, in binding buffer for 2 h at 4 °C with gentle rotation. The beads carrying His‐SOST and His‐loop3 peptide were then incubated with 500 µL cell lysate supernatant at 4 °C overnight with gentle rotation. To eliminate the influence of non‐specific binding between beads and cell lysate, 20 µL beads and 500 µL cell lysate were incubated under the same conditions. […]
The eluted liquid from pull‐down assay was then mixed with SDS‐PAGE loading buffer and boiled for 10 min at 95 °C to make samples. […] The ECL solution (BIO‐RAD, 1 705 061) was used to visualize detected proteins. […]

ApoER2 = target: T1, ApoER2; assay: Co‐immunoprecipitation of wild‐type/mutated sclerostin with ApoER2 in macrophages (RAW264.7); assay type: binding; details: Figure 6E
Description: The interaction of full‐length (FL)/truncated ApoER2 with full‐length (FL) /truncated sclerostin in macrophages (RAW264.7) were determined by pull‐down assay and Co‐IP assay. The binding affinity of ApoER2 to FL sclerostin and sclerostin loop2 were determined by biolayer interferometry (BLI) analysis. Moreover, the binding of sclerostin to ApoER2 on macrophages (RAW264.7) was examined by confocal microscopy.

| Molecule | Binding ability of sclerostin loop2 to ApoER2 mutein versus wild‐type ApoER2 (sclerostin loop2) | Interaction with ApoER2 by co‐IP (ApoER2) |
| --- | --- | --- |
| B1 | dramatically weaker | – |
| B2 | dramatically weaker | – |
| B3 | – | No interaction |
